Drawing on patent US7041871, this text covers kon for 1 molecule.

In the assay the target is T1, recombinant soluble human CD4 (human, UniProt P01730 26-396, limits assumed).
T1 construct: Soluble recombinant CD4 used for ELISA and SPR/BIAcore; also called rCD4; sCD4
In words: BIAcore; rCD4 coupled to chip, mAb flowed (avidity). The method, then:
The rate and equilibrium constants presented in Table 19 were determined with a BIAcore, using antigen (rCD4) coupled to the sensor chip and flowing mAb over. These constants were derived from at least three independent experiments using purified mAbs.

B1: 6G5.1 (antibody, human IgG1, V domains shown)
VH: QVQLQQWGAGLLKPSETLSLTCAVYGGSFSGYYWSWIRQPPGKGLEWIGEINHSGSTNYNPSLKSRVTISVDTSKNQFSLKLSSVTAADTAVYYCARVINWFDPWGQGTLVTVSS
VL: DIQMTQSPSSVSASVGDRVTITCRASQDISSWLAWYQHKPGKAPKLLIYAASSLQSGVPSRFSGSGSGTDFTLTISSLQPEDFATYYCQQANSFPYTFGQGTKLEIK
notes: Human IgG1 kappa from a hybridoma of an HC2/KCo5 mouse; VH4-34/JH5, VkL19/Jk2; also called GGS
By kon is commonly meant a measure of how fast the partners come together. Consider B1, for which the kon is 11000 M⁻¹ s⁻¹.
